Assay [1] has as its target T1, human claudin 6 (CLDN6) (human, UniProt P56747 1-220).
T1 construct: also called human CLDN6; hCLDN6
T1 sequence: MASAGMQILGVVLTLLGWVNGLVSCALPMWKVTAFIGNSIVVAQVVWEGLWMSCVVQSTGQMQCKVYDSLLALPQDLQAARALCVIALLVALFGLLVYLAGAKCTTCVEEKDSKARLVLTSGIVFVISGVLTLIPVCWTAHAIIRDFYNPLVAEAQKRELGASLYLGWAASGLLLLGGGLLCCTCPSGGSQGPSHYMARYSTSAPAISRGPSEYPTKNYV
Briefly: flow cytometry on HEK293T/human CLDN6 cells, goat anti-human IgG secondary, MFI(PE). Here is the method: (§1) For affinity determination, CLDN6 over-expressing HEK293T cells and cancer cell line PA-1 which express high levels of human CLDN6 were used to evaluate the binding activity of BG87P related engineering variants. Live cells were seeded in 96-well plate, and were incubated with a series of dilutions of chBG87P and engineered variants thereof. Goat anti-human IgG was used as second antibody to detect antibody binding to the cell surface. EC50 values for dose-dependent binding to CLDN6 expressing cell lines were determined by fitting the dose-response data to the four-parameter logistic model with GraphPad Prism. Cell binding activity of 1st round of BG87P humanization variants against HEK293T/human CLDN6 were compared to chBG87P and shown in FIG. 1A.
For orientation: A flow cytometer gives signals particle by particle.

Assay [2] has as its target T2, cyno CLDN6 (cyno).
T2 construct: whole, on cells; also called cynomolgus CLDN6
The assay is described as follows: flow cytometry on CHOK1/cyno CLDN6 cells, MFI(PE).

Assay [3] concerns the target T2, cyno CLDN6. Briefly: FACS, HEK293T-cyno-CLDN6 cells.
For another assay, the target named is T3, mouse CLDN6 (mouse, UniProt Q9Z262 1-219).
T3 construct: whole, on cells
T3 sequence (looked up): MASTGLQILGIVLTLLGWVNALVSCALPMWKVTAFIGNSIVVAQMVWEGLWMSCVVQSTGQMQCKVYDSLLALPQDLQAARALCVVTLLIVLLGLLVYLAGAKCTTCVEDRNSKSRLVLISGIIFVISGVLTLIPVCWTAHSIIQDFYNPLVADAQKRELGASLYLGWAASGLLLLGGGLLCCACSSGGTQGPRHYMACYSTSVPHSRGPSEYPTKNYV
Briefly: flow cytometry on CHOK1/mouse CLDN6 cells, MFI(PE).

Assay [4] concerns the target T2, cyno CLDN6. Briefly: FACS, HEK293T_cyno-CLDN6 cells.
Assay [5] deals with T1, human claudin 6 (CLDN6). The assay is described as follows: FACS, HEK293T/human CLDN6 cells. Here is the method:
as §1
Beginning with the chBG87P antibody and BG87P-Bz0, several additional amino acid changes in the CDR regions of both VH and VL were made to further improve the biophysical properties for therapeutics use in human. The considerations included removing post translational modifications (PTM), improved heat stability (Tm), while maintaining binding activities, the resulted variants are BG87P-m1 (VH SEQ ID NO: 31 and VL SEQ ID NO: 8), BG87P-m2 (VH SEQ ID NO: 32 and VL SEQ ID NO: 8), BG87P-m3 (VH SEQ ID NO: 33 and VL SEQ ID NO: 8), and BG87P-m4 (VH SEQ ID NO: 34 and VL SEQ ID NO: 8) and BG87P-m5 (VH SEQ ID NO: 35 and VL SEQ ID NO: 14), BG87P-m6 (VH SEQ ID NO: 36 and VL SEQ ID NO 14), BG87P-m7 (VH SEQ ID NO: 37 and VL SEQ ID NO: 14), and BG87P-m8 (VH SEQ ID NO: 38 and VL SEQ ID NO: 14). Cell binding activity of chBG87P and BG87P-Bz0 related PTM removal variants against HEK293T/human CLDN6 was compared with chBG87P and BG87-Bz0, respectively ([…]). Cell binding affinity (EC50) and Emax (MFI) was normalized to chBG87P for directly comparison and ranking (Table 7).

Assay [6] addresses T1, human claudin 6 (CLDN6). Briefly: FACS, HEK293T-hCLDN6 cells.
Assay [7] has as its target T1, human claudin 6 (CLDN6). The assay is described as follows: FACS, HEK293-hCLDN6 cells.
The target in assay [8] is T1, human claudin 6 (CLDN6). Briefly: FACS, PA-1 cells (endogenous CLDN6). As for the experimental part:
as §1

Positions count from the first letter of the chain named. Names may count otherwise. “And” between values parts separate entries of the source, which are not always exact repeats. Identical values can stand only once.

B1: BG87P-21 (antibody, V domains shown)
VH: QVQLVQSGAEVKKPGASVKVSCKASGYSFTDYHINWVRQAPGQRLEWMGWIYPGSGYTKYNEKFKGRVTITRDTSASTAYMELSSLRSEDTAVYYCARSGIYHYVSSYYFDHWGKGTTVTVSS
VL: DIQMTQSPSTLSASVGDRVTITCKASQDVGTAVAWYQQKPGKAPKLLIYWASTRHTGVPSRFSGSGSGTEFTLTISSLQPDDFATYYCQQYSSYTFGGGTKVEIK
One may read the EC50 (read off the curve) as the concentration giving half of the maximal effect. A lower EC50 (read off the curve) goes with higher potency in that assay. What is called EC50 is the concentration that produces a half-maximal response. Read a high EC50 as weaker potency. With B1, the “EC50 (read off the curve)” value with human claudin 6 (CLDN6) [1] was around 10 nM; with cyno CLDN6 [2], around 9 nM. Further, the results for the “FACS Emax ratio to BG87P” value in the assay with cyno CLDN6 [3] and with human claudin 6 (CLDN6) [6] were 0.8 ratio and 0.66 ratio, respectively. Moreover, the binding result with mouse CLDN6 is reported as “binds”. Also, the EC50 was 8.9 nM in the assay with cyno CLDN6 [4]; 3.07 nM in the assay with human claudin 6 (CLDN6) [5]; 2.8 nM and 2.62 nM in the assay with human claudin 6 (CLDN6) [8]. Moreover, the entries for the “Emax ratio to BG87P” value in the assay with human claudin 6 (CLDN6) [5] and with human claudin 6 (CLDN6) [8] were 0.78 ratio and 0.61 ratio, respectively. In the assay with human claudin 6 (CLDN6) [5], the “Top MFI Mean” value was found to be 149000 MFI. In addition, the “FACS-Ec50 ratio to BG87P” value with human claudin 6 (CLDN6) [7] came out at 0.91 ratio.

B2: BG87P-31 (antibody, V domains shown)
VH: B1 VH with V5Q, V11T, P41S, W50Y, Y57H, Y60K
VL: B1 VL with V29A, T31S, Y49K
notes: Solubility engineering variant of BG87P-21
For the molecule B2, the “FACS Emax ratio to BG87P” value with human claudin 6 (CLDN6) [6] stood at 0.76 ratio. Moreover, the “FACS-Ec50 ratio to BG87P” value with human claudin 6 (CLDN6) [7] was 1.6 ratio.

B3: BG87P-32 (antibody, V domains shown)
VH: B1 VH with V5Q, V11T, P41S, W50Y, Y57H, Y60K
VL: B1 VL with V29A, T31S
notes: as for B2
Turning to B3, the “FACS Emax ratio to BG87P” value with human claudin 6 (CLDN6) [6] turned out to be 0.63 ratio. Also, the “FACS-Ec50 ratio to BG87P” value with human claudin 6 (CLDN6) [7] is 1.31 ratio.

B4: BG87P-22 (antibody, V domains shown)
VH: B1 VH with Y95F
VL: B1 VL
For the molecule B4, in the assay with human claudin 6 (CLDN6) [5], the EC50 worked out at 2.12 nM, the “Emax ratio to BG87P” value was found to be 0.71 ratio and the “Top MFI Mean” value was 137000 MFI. In addition, in the assay with human claudin 6 (CLDN6) [8], the EC50 is 3.01 nM and 3 nM; the “Emax ratio to BG87P” value was 0.54 ratio.

B5: BG87P-33 (antibody, V domains shown)
VH: EVQLQESGGGLVQPGGSLRLSCAASGYSFTDYHINWVRQAPGKGLEWVSYIYPGSGHTKYNEKFKGRFTISRDTSKNTAYLQMNSLRAEDTAVYYCARSGIYHYVSSYYFDHWGQGTLVTVSS
VL: B1 VL with V29A, T31S
notes: Framework-swapped variant; also called BG87-33
Regarding B5, the “FACS Emax ratio to BG87P” value with cyno CLDN6 [3] is 0.75 ratio; in the assay with human claudin 6 (CLDN6) [6], 0.91 ratio. In the assay with mouse CLDN6, the binding result was “binds”. In the assay with cyno CLDN6 [4], the midpoint of the response, the EC50, lay at 25.8 nM. Besides, the “FACS-Ec50 ratio to BG87P” value with human claudin 6 (CLDN6) [7] is 2.45 ratio.

B6: BG87P-26 (antibody, V domains shown)
VH: B1 VH with V2I, Y95F
VL: B1 VL
As to B6, in the assay with human claudin 6 (CLDN6) [5], the EC50 worked out at 2.3 nM, the “Emax ratio to BG87P” value stood at 0.77 ratio and the “Top MFI Mean” value turned out to be 148000 MFI. Further, in the assay with human claudin 6 (CLDN6) [8], the EC50 was 2.3 nM and 2.52 nM; the “Emax ratio to BG87P” value was found to be 0.54 ratio; the “Top MFI Mean” value was 68000 MFI.

B7: BG87P-27 (antibody, V domains shown)
VH: B1 VH with I70L, Y95F
VL: B1 VL
Regarding B7, in the assay with human claudin 6 (CLDN6) [5], the EC50 was 2 nM, the “Emax ratio to BG87P” value turned out to be 0.68 ratio and the “Top MFI Mean” value is 131000 MFI. Moreover, in the assay with human claudin 6 (CLDN6) [8], the EC50 was 1.68 nM, the “Emax ratio to BG87P” value is 0.53 ratio and the “Top MFI Mean” value stood at 66700 MFI.

B8: BG87P-25 (antibody, V domains shown)
VH: B1 VH with V2I, I70L
VL: B1 VL
In the case of B8, in the assay with human claudin 6 (CLDN6) [5], the concentration giving a half-maximal response (EC50) came to 2.33 nM, the “Emax ratio to BG87P” value is 0.74 ratio and the “Top MFI Mean” value was 143000 MFI. Further, in the assay with human claudin 6 (CLDN6) [8], the response was half-maximal at 2.34 nM (EC50), the “Emax ratio to BG87P” value turned out to be 0.59 ratio and the “Top MFI Mean” value worked out at 73700 MFI.

B9: BG87P-23 (antibody, V domains shown)
VH: B1 VH with V2I
VL: B1 VL
In the case of B9, in the assay with human claudin 6 (CLDN6) [5], the EC50 is 2.43 nM, the “Emax ratio to BG87P” value amounted to 0.77 ratio and the “Top MFI Mean” value was found to be 148000 MFI. In the assay with human claudin 6 (CLDN6) [8], the EC50 stood at 2.49 nM, the “Emax ratio to BG87P” value was 0.58 ratio and the “Top MFI Mean” value is 72500 MFI.

B10: BG87P-z0 (antibody, V domains shown)
VH: B1 VH with S28T, G66V
VL: B1 VL
In the case of B10, in the assay with human claudin 6 (CLDN6) [5], the EC50 stood at 2.45 nM, the “Emax ratio to BG87P” value was determined as 0.5 ratio and the “Top MFI Mean” value is 95600 MFI. Also, in the assay with human claudin 6 (CLDN6) [8], a half-maximal response (EC50) required 3.25 nM, the “Emax ratio to BG87P” value is 0.43 ratio and the “Top MFI Mean” value worked out at 53200 MFI.

B11: BG87P-24 (antibody, V domains shown)
VH: B1 VH with I70L
VL: B1 VL
For B11, in the assay with human claudin 6 (CLDN6) [5], a half-maximal response (EC50) required 2.16 nM, the “Emax ratio to BG87P” value was 0.73 ratio and the “Top MFI Mean” value was 141000 MFI. For the same molecule, in the assay with human claudin 6 (CLDN6) [8], the EC50 was found to be 2.27 nM, the “Emax ratio to BG87P” value is 0.5 ratio and the “Top MFI Mean” value was 62400 MFI.

B12: BG87P-m1 (antibody, V domains shown)
VH: QIQLQQSGPELVKPGASVKISCKASGYSFTDYHINWVKQRPGQGLEWIGWIYPGSGYTKYNEKFKVKATLTVDTSSSTAYMHLTSLTSEDSAVYFCARSGIYHYVSSYYFEHWGQGTTLTVSS
VL: DIVMTQSHTFMSTSVGDRVSITCKASQDVGTAVAWYQQKPGQSPKLLIYWASTRHTGVPDRFTGSGSGTDFTLTISNVQSEDLADYFCQQYSSYTFGGGTKLEIK
notes: PTM removal variant of chBG87P; constant regions not restated (parent: human IgG1/kappa)
Regarding B12, in the assay with human claudin 6 (CLDN6) [5], a half-maximal response (EC50) required 3.56 nM, the “Emax ratio to BG87P” value came out at 1.08 ratio and the “Top MFI Mean” value stood at 207000 MFI.

B13: BG87P-m3 (antibody, V domains shown)
VH: B12 VH with V66G, E111D
VL: B12 VL
notes: PTM removal variant of chBG87P (VH V65G); constant regions not restated (parent: human IgG1/kappa)
Turning to B13, in the assay with human claudin 6 (CLDN6) [5], the midpoint of the response, the EC50, lay at 2.32 nM; the “Emax ratio to BG87P” value is 1.18 ratio; the “Top MFI Mean” value turned out to be 227000 MFI.

B14: BG87P-m4 (antibody, V domains shown)
VH: B12 VH with H33A, E111D
VL: B12 VL
notes: Variant of chBG87P with H33A; constant regions not restated (parent: human IgG1/kappa)
Regarding B14, in the assay with human claudin 6 (CLDN6) [5], a half-maximal response (EC50) required 11.8 nM, the “Emax ratio to BG87P” value amounted to 0.74 ratio and the “Top MFI Mean” value was 143000 MFI.

B15: BG87P-m2 (antibody, V domains shown)
VH: B12 VH with E111Q
VL: B12 VL
notes: as for B12
As to B15, in the assay with human claudin 6 (CLDN6) [5], the response was half-maximal at 2.51 nM (EC50), the “Emax ratio to BG87P” value amounted to 1.05 ratio and the “Top MFI Mean” value turned out to be 202000 MFI.

Values taken from patent publication US20240301062A1 (BEIGENE SWITZERLAND, published 2024).
